Test results: patent publication US20260001928A1 (CORTERIA PHARMACEUTICALS, priority 2022, published 2026)
*1 amine or outer side, *2 acyl side, *3 side chain or, on linkers, in order; H or OH if unused. Where no end group is shown, it is not given here. Side-chain parts run from the residue outwards. [ ]: non-standard residue; d: D form. The star is where a group is joined. C20 diacid = O=C(O)CCCCCCCCCCCCCCCCCCC(=O)*; C16 diacid = O=C(O)CCCCCCCCCCCCCCC(=O)*; γGlu = O=C(O)[C@H](CCC(=O)[*:2])N[*:1]; NMeI = CC[C@H](C)[C@H](NC)C(=O)O; AEEA = NCCOCCOCC(=O)O; Aib = CC(C)(N)C(=O)O

T1: CRF1R (corticotropin-releasing factor receptor 1), on the CRF1R-overexpression CHO-K1 cell line clone 2 (UniProt P34998 24-415, limits assumed)
T1 sequence (looked up): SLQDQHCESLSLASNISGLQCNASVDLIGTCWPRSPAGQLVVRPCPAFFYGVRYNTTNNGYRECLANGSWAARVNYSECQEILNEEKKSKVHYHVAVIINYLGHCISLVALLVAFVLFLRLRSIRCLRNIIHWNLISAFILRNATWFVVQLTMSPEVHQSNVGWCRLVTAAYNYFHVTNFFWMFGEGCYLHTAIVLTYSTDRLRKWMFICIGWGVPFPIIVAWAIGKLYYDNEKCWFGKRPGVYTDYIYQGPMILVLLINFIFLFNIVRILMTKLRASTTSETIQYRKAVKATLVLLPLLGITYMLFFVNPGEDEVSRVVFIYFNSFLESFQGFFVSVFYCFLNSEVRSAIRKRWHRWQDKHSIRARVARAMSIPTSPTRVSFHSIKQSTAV


Assays:
[1] = target: T1, CRF1R (corticotropin-releasing factor …); experiment: cell-based or functional assay
[2] = target: Rat CRF2 a (corticotropin-releasing factor receptor 2), on the A7R5 rat aortic smooth muscle cell line (rat, UniProt P47866 20-411); experiment: cell-based or functional assay
Chain of Rat CRF2 a (corticotropin-releasing factor receptor 2), on the A7R5 rat aortic smooth muscle cell line (P47866 20-411): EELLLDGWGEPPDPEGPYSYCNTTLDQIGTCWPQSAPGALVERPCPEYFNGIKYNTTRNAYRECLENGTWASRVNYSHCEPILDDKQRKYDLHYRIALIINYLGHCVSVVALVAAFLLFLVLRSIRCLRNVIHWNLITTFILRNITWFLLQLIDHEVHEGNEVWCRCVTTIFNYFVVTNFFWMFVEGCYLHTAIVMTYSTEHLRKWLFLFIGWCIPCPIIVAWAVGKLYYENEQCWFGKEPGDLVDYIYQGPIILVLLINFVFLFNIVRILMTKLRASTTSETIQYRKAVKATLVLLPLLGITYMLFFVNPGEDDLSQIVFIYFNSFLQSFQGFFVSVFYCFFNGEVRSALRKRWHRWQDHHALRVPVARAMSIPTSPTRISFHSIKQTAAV

| Binder | EC50 [nM] (cAMP, CRF1R-overexpression CHO-K1 cells) [1] | Emax (% I) (cAMP, 100% = Sauvagine at 100 nM) [1] | EC50 [nM] 0% HSA (cAMP, A7R5 rat aortic smooth muscle cells) [2] [nM] |
| --- | --- | --- | --- |
| Ac-IVLSLD[dV]PIKLK([AEEA-γGlu-C20 diacid])KILLEQEKQKKQREQAETN[Aib]QILAQV-NH2 (SMILES CC[C@H](C)[C@H](NC(C)=O)C(=O)N[C@H](C(=O)N[C@@H](CC(C)C)C(=O)N[C@@H](CO)C(=O)N[C@@H](CC(C)C)C(=O)N[C@@H](CC(=O)O)C(=O)N[C@@H](C(=O)N1CCC[C@H]1C(=O)N[C@H](C(=O)N[C@@H](CCCCN)C(=O)N[C@@H](CC(C)C)C(=O)N[C@@H](CCCCNC(=O)COCCOCCNC(=O)CC[C@H](NC(=O)CCCCCCCCCCCCCCCCCCC(=O)O)C(=O)O)C(=O)N[C@@H](CCCCN)C(=O)N[C@H](C(=O)N[C@@H](CC(C)C)C(=O)N[C@@H](CC(C)C)C(=O)N[C@@H](CCC(=O)O)C(=O)N[C@@H](CCC(N)=O)C(=O)N[C@@H](CCC(=O)O)C(=O)N[C@@H](CCCCN)C(=O)N[C@@H](CCC(N)=O)C(=O)N[C@@H](CCCCN)C(=O)N[C@@H](CCCCN)C(=O)N[C@@H](CCC(N)=O)C(=O)N[C@@H](CCCNC(=N)N)C(=O)N[C@@H](CCC(=O)O)C(=O)N[C@@H](CCC(N)=O)C(=O)N[C@@H](C)C(=O)N[C@@H](CCC(=O)O)C(=O)N[C@H](C(=O)N[C@@H](CC(N)=O)C(=O)NC(C)(C)C(=O)N[C@@H](CCC(N)=O)C(=O)N[C@H](C(=O)N[C@@H](CC(C)C)C(=O)N[C@@H](C)C(=O)N[C@@H](CCC(N)=O)C(=O)N[C@H](C(N)=O)C(C)C)[C@@H](C)CC)[C@@H](C)O)[C@@H](C)CC)[C@@H](C)CC)C(C)C)C(C)C) [peptide of SEQ ID NO: 230] | > 250 | 30 | 0.11 |
| Ac-IVLSLD[dV]PIKLK([γGlu-C20 diacid])KILLEQEKQKEQREQAETN[Aib]QILAQV-NH2 (SMILES CC[C@H](C)[C@H](NC(C)=O)C(=O)N[C@H](C(=O)N[C@@H](CC(C)C)C(=O)N[C@@H](CO)C(=O)N[C@@H](CC(C)C)C(=O)N[C@@H](CC(=O)O)C(=O)N[C@@H](C(=O)N1CCC[C@H]1C(=O)N[C@H](C(=O)N[C@@H](CCCCN)C(=O)N[C@@H](CC(C)C)C(=O)N[C@@H](CCCCNC(=O)CC[C@H](NC(=O)CCCCCCCCCCCCCCCCCCC(=O)O)C(=O)O)C(=O)N[C@@H](CCCCN)C(=O)N[C@H](C(=O)N[C@@H](CC(C)C)C(=O)N[C@@H](CC(C)C)C(=O)N[C@@H](CCC(=O)O)C(=O)N[C@@H](CCC(N)=O)C(=O)N[C@@H](CCC(=O)O)C(=O)N[C@@H](CCCCN)C(=O)N[C@@H](CCC(N)=O)C(=O)N[C@@H](CCCCN)C(=O)N[C@@H](CCC(=O)O)C(=O)N[C@@H](CCC(N)=O)C(=O)N[C@@H](CCCNC(=N)N)C(=O)N[C@@H](CCC(=O)O)C(=O)N[C@@H](CCC(N)=O)C(=O)N[C@@H](C)C(=O)N[C@@H](CCC(=O)O)C(=O)N[C@H](C(=O)N[C@@H](CC(N)=O)C(=O)NC(C)(C)C(=O)N[C@@H](CCC(N)=O)C(=O)N[C@H](C(=O)N[C@@H](CC(C)C)C(=O)N[C@@H](C)C(=O)N[C@@H](CCC(N)=O)C(=O)N[C@H](C(N)=O)C(C)C)[C@@H](C)CC)[C@@H](C)O)[C@@H](C)CC)[C@@H](C)CC)C(C)C)C(C)C) [peptide of SEQ ID NO: 213] |  |  | 0.45 |
| [NMeI]VLSLD[dV]PIKLK([γGlu-C20 diacid])KILLEQEKQKEQREQAETN[Aib]QILAQV-NH2 (N-terminus assumed; SMILES CC[C@H](C)[C@H](NC)C(=O)N[C@H](C(=O)N[C@@H](CC(C)C)C(=O)N[C@@H](CO)C(=O)N[C@@H](CC(C)C)C(=O)N[C@@H](CC(=O)O)C(=O)N[C@@H](C(=O)N1CCC[C@H]1C(=O)N[C@H](C(=O)N[C@@H](CCCCN)C(=O)N[C@@H](CC(C)C)C(=O)N[C@@H](CCCCNC(=O)CC[C@H](NC(=O)CCCCCCCCCCCCCCCCCCC(=O)O)C(=O)O)C(=O)N[C@@H](CCCCN)C(=O)N[C@H](C(=O)N[C@@H](CC(C)C)C(=O)N[C@@H](CC(C)C)C(=O)N[C@@H](CCC(=O)O)C(=O)N[C@@H](CCC(N)=O)C(=O)N[C@@H](CCC(=O)O)C(=O)N[C@@H](CCCCN)C(=O)N[C@@H](CCC(N)=O)C(=O)N[C@@H](CCCCN)C(=O)N[C@@H](CCC(=O)O)C(=O)N[C@@H](CCC(N)=O)C(=O)N[C@@H](CCCNC(=N)N)C(=O)N[C@@H](CCC(=O)O)C(=O)N[C@@H](CCC(N)=O)C(=O)N[C@@H](C)C(=O)N[C@@H](CCC(=O)O)C(=O)N[C@H](C(=O)N[C@@H](CC(N)=O)C(=O)NC(C)(C)C(=O)N[C@@H](CCC(N)=O)C(=O)N[C@H](C(=O)N[C@@H](CC(C)C)C(=O)N[C@@H](C)C(=O)N[C@@H](CCC(N)=O)C(=O)N[C@H](C(N)=O)C(C)C)[C@@H](C)CC)[C@@H](C)O)[C@@H](C)CC)[C@@H](C)CC)C(C)C)C(C)C) [peptide of SEQ ID NO: 218] |  |  | 0.13 |
| Ac-IVLSLD[dV]PIKLK([γGlu-C16 diacid])KILLEQEKQKEQREQAETN[Aib]QILAQV-NH2 (SMILES CC[C@H](C)[C@H](NC(C)=O)C(=O)N[C@H](C(=O)N[C@@H](CC(C)C)C(=O)N[C@@H](CO)C(=O)N[C@@H](CC(C)C)C(=O)N[C@@H](CC(=O)O)C(=O)N[C@@H](C(=O)N1CCC[C@H]1C(=O)N[C@H](C(=O)N[C@@H](CCCCN)C(=O)N[C@@H](CC(C)C)C(=O)N[C@@H](CCCCNC(=O)CC[C@H](NC(=O)CCCCCCCCCCCCCCC(=O)O)C(=O)O)C(=O)N[C@@H](CCCCN)C(=O)N[C@H](C(=O)N[C@@H](CC(C)C)C(=O)N[C@@H](CC(C)C)C(=O)N[C@@H](CCC(=O)O)C(=O)N[C@@H](CCC(N)=O)C(=O)N[C@@H](CCC(=O)O)C(=O)N[C@@H](CCCCN)C(=O)N[C@@H](CCC(N)=O)C(=O)N[C@@H](CCCCN)C(=O)N[C@@H](CCC(=O)O)C(=O)N[C@@H](CCC(N)=O)C(=O)N[C@@H](CCCNC(=N)N)C(=O)N[C@@H](CCC(=O)O)C(=O)N[C@@H](CCC(N)=O)C(=O)N[C@@H](C)C(=O)N[C@@H](CCC(=O)O)C(=O)N[C@H](C(=O)N[C@@H](CC(N)=O)C(=O)NC(C)(C)C(=O)N[C@@H](CCC(N)=O)C(=O)N[C@H](C(=O)N[C@@H](CC(C)C)C(=O)N[C@@H](C)C(=O)N[C@@H](CCC(N)=O)C(=O)N[C@H](C(N)=O)C(C)C)[C@@H](C)CC)[C@@H](C)O)[C@@H](C)CC)[C@@H](C)CC)C(C)C)C(C)C) [peptide of SEQ ID NO: 168] |  |  | 3.23 |

The remaining lines, values ahead:

| EC50 [nM] (cAMP, CRF1R-overexpression CHO-K1 cells) [1] | Emax (% I) (cAMP, 100% = Sauvagine at 100 nM) [1] | EC50 [nM] 0% HSA (cAMP, A7R5 rat aortic smooth muscle cells) [2] [nM] | Binder |
| --- | --- | --- | --- |
| > 250 | 13 | 0.4 | Ac-IVLSLD[dV]PIKLK([AEEA-γGlu-C20 diacid])KILLEQEKQKAQREQAETN[Aib]QILAQV-NH2 (SMILES CC[C@H](C)[C@H](NC(C)=O)C(=O)N[C@H](C(=O)N[C@@H](CC(C)C)C(=O)N[C@@H](CO)C(=O)N[C@@H](CC(C)C)C(=O)N[C@@H](CC(=O)O)C(=O)N[C@@H](C(=O)N1CCC[C@H]1C(=O)N[C@H](C(=O)N[C@@H](CCCCN)C(=O)N[C@@H](CC(C)C)C(=O)N[C@@H](CCCCNC(=O)COCCOCCNC(=O)CC[C@H](NC(=O)CCCCCCCCCCCCCCCCCCC(=O)O)C(=O)O)C(=O)N[C@@H](CCCCN)C(=O)N[C@H](C(=O)N[C@@H](CC(C)C)C(=O)N[C@@H](CC(C)C)C(=O)N[C@@H](CCC(=O)O)C(=O)N[C@@H](CCC(N)=O)C(=O)N[C@@H](CCC(=O)O)C(=O)N[C@@H](CCCCN)C(=O)N[C@@H](CCC(N)=O)C(=O)N[C@@H](CCCCN)C(=O)N[C@@H](C)C(=O)N[C@@H](CCC(N)=O)C(=O)N[C@@H](CCCNC(=N)N)C(=O)N[C@@H](CCC(=O)O)C(=O)N[C@@H](CCC(N)=O)C(=O)N[C@@H](C)C(=O)N[C@@H](CCC(=O)O)C(=O)N[C@H](C(=O)N[C@@H](CC(N)=O)C(=O)NC(C)(C)C(=O)N[C@@H](CCC(N)=O)C(=O)N[C@H](C(=O)N[C@@H](CC(C)C)C(=O)N[C@@H](C)C(=O)N[C@@H](CCC(N)=O)C(=O)N[C@H](C(N)=O)C(C)C)[C@@H](C)CC)[C@@H](C)O)[C@@H](C)CC)[C@@H](C)CC)C(C)C)C(C)C) [peptide of SEQ ID NO: 232] |
| > 250 | 10 | 1.32 | Ac-IVLSLD[dV]PIKLK([AEEA-γGlu-C20 diacid])KILLEQEKQKEQREQAETN[Aib]QILAQV-NH2 (SMILES CC[C@H](C)[C@H](NC(C)=O)C(=O)N[C@H](C(=O)N[C@@H](CC(C)C)C(=O)N[C@@H](CO)C(=O)N[C@@H](CC(C)C)C(=O)N[C@@H](CC(=O)O)C(=O)N[C@@H](C(=O)N1CCC[C@H]1C(=O)N[C@H](C(=O)N[C@@H](CCCCN)C(=O)N[C@@H](CC(C)C)C(=O)N[C@@H](CCCCNC(=O)COCCOCCNC(=O)CC[C@H](NC(=O)CCCCCCCCCCCCCCCCCCC(=O)O)C(=O)O)C(=O)N[C@@H](CCCCN)C(=O)N[C@H](C(=O)N[C@@H](CC(C)C)C(=O)N[C@@H](CC(C)C)C(=O)N[C@@H](CCC(=O)O)C(=O)N[C@@H](CCC(N)=O)C(=O)N[C@@H](CCC(=O)O)C(=O)N[C@@H](CCCCN)C(=O)N[C@@H](CCC(N)=O)C(=O)N[C@@H](CCCCN)C(=O)N[C@@H](CCC(=O)O)C(=O)N[C@@H](CCC(N)=O)C(=O)N[C@@H](CCCNC(=N)N)C(=O)N[C@@H](CCC(=O)O)C(=O)N[C@@H](CCC(N)=O)C(=O)N[C@@H](C)C(=O)N[C@@H](CCC(=O)O)C(=O)N[C@H](C(=O)N[C@@H](CC(N)=O)C(=O)NC(C)(C)C(=O)N[C@@H](CCC(N)=O)C(=O)N[C@H](C(=O)N[C@@H](CC(C)C)C(=O)N[C@@H](C)C(=O)N[C@@H](CCC(N)=O)C(=O)N[C@H](C(N)=O)C(C)C)[C@@H](C)CC)[C@@H](C)O)[C@@H](C)CC)[C@@H](C)CC)C(C)C)C(C)C) [peptide of SEQ ID NO: 231] |
